This is an account of results in a protein production outcome set (Wang et al. 2014).

The data set in a line: label from the status in PepcDB records.
Regarding “MTPPIAADYTAQAVSTDTIGYLHSTESGAGVDGPGMRFVFFVSGCQFRCLYCHNPDTWKLHNGRQVSVEQALSEVAPYARFLKFAGGVTISGGEPLMQHEFVGELFHEIKQRFGLHTALDTQGFLHERVSDAWFDDVDLVMLDIKHSDPEKYQALTGQPLQPTLDFALRLKRLRKKMWIRYVLVPGLTDGDADIEKLADFAASLGDVVERVEVLPFHQLGKDKWAQLGMEYQLNDTPIPTAEQAAHARALFASRGLKVTLEHHHHHH”, the protein production entry is “not failed”.

For “MDANEKKEVIKKRFQEIAMSGGTCCSGGGCCGDSSSSDISRAIGYSEADIEAVPDANMGLGCGNPASIAELKPGDIVLDLGSGAGFDCFLAAQKVGNSGKVIGVDMTPEMVEKVQANARKYGYSNVEFRQGDIEALPVEDSSVDVIISNCVINLAPDKEKVFREAFRVLKLGGRLYISDLVLLDELPEDLKNDRDLLAGCVAGAVLKEEYLKLLKRAGFSVEILAEDPDISKSQYKGLPVESLKLKAWVLEHHHHHH”, the protein production entry is listed as “not failed”. Take “MASSTLFKLNSQTFKALNPSPPSLSPPNSRIFHLHFSKSLSQQHSKLNHKSTTTRLFAPLCSSLPSPSSSSPPLSKEEAINQAKTCLLSCLIKPLNNPKLASPKLRKLKQPRFRLEIPILDDDSPSSLSQLAFSIFHDLPISRRGSNVKLLFLWPNPSFIDPAVKAFRSDSIHHIAMSPVSDSLKTALRSADVAIFMAPEKSQLEDVKTASEAFSTKPVVMINPRWLFEEEKSFGDGFIGSFEVIYAFTGLEVRGVFSKRKGVIFKCVRDGVVSGERWNVLVEEEEGNGTLKVVSQFNSRPSIEEVELVLYNLMAMNSPITKSAKFLSDLVSNITGKK”: the protein production entry is listed as “failed”. “MRLAVLADIHGNADALEAVRADLALQSPDLVVNLGDCLSGPLEVERTADLLMEANWPAVRGNHDRWLVEPEGGTVWETDARPRLSAAQRDWLAALPATRVEAGAFLCHATPGSDLIYWLHHVTPEGHVAPSPLERISRFADGITERLILCGHTHLARSVRLPDGRLVVNPGSVGCPGYEDDAPVPHRVESGTPAACYAILDSKGGDWRVTFRQIPYDHDRAARLAGRYGRPDWESVLATGWLPAQKGQGAL”: the protein production result is recorded as “failed”. With “MLPDSSVRLNKYISESGICSRREADRYIEQGNVFLNGKRATIGDQVKPGDVVKVNGQLIEPREAEDLVLIALNKPVGIVSTTEDGERDNIVDFVNHSKRVFPIGRLDKDSQGLIFLTNHGDLVNKILRAGNDHEKEYLVTVDKPITDEFIRGMGAGVPILGTVTKKCKVKKEAPFVFRITLVQGLNRQIRRMCEHFGYEVKKLERTRIMNVSLSGIPLGEWRDLTDDELIDLFKLIENSSSEAKPKAKAKPKTAGIKRPVVKMEKTAEKGGRPASNGKRFTSPGRKKKGR”, the protein production result is given as “not failed”. With “EEGNSSELPLSAEDAKKLTELAENVLQGWDVQAEKIDVIQGNQMALVWKVHTDSGAVCLKRIHRPEKKALFSIFAQDYLAKKGMNVPGILPNKKGSLYSKHGSFLFVVYDWIEGRPFELTVKQDLEFIMKGLADFHTASVGYQPPNGVPIFTKLGRWPNHYTKRCKQMETWKLMAEAEKEDPFSQLYLQEIDGFIEDGLRIKDRLLQSTYVPWTEQLKKSPNLCHQDYGTGNTLLGENEQIWVIDLDTVSFDLPIRDLRKMIIPLLDTTGVWDDETFNVMLNAYESRAPLTEEQKQVMFIDMLFPYELYDVIREKYVRKSALPKEELESAFEYERIKANALRQLI”, the protein production entry is “not failed”. Take “MKQKELWINQIKGLCICLVVIYHSVITFYPHLTTFQHPLSEVLSKCWIYFNLYLAPFRMPVFFFISGYLIRRYIDSVPWGNCLDKRIWNIFWVLALWGVVQWLALSALNQWLAPERDLSNASNAAYADSTGEFLHGMITASTSLWYLYALIVYFVVCKIFSRLALPLFALFVLLSVAVNFVPTPWWGMNSVIRNLPYYSLGAWFGATIMTCVKEVPLRRHLLMASLLTVLAVGAWLFTISLLLSLVSIVVIMKLFYQYEQRFGMRSTSLLNVIGSNTIAIYTTHRILVEIFSLTLLAQMNAARWSPQVELTLLLVYPFVSLFICTVAGLLVRKLSQRAFSDLLFSPPSLPAAVSYSR”: the protein production result is given as “failed”.

“MRVVVISSFVSVSLQLSFLLLLASAIRSSSSPPNDPFLGISPQDEKYYKSSSEIKCKDGSKKFTKAQLNDDFCDCSDGTDEPGTSACPTGKFYCRNAGHSPVILFSSRVNDGICDCCDGSDEYDGHVSCQNTCWEAGKAARENLKKKIETYNQGLVIRRQEIEQAKVGLEKDAAELKKLKSEQKILKGLVDQLKDRKEQIEKVEEKERLQKEKEEKEKKEAELAAQQGKGDAEEKTDDSEKVEESSHDEGTPAVSQHDETTHHDEIGNYKDYPSDEEPAAEGEPTSILDEATHTNPADEHVVERKEESTSSEDSSSPTDESQNDGSAEKEESDEVKKVEDFVTEKKEELSKEELGRLVASRWTGEKSDKPTEADDIPKADDQENHEHTPITAHEADEDDGFVSDGDEDTSDDGKYSDHEPEDDSYEEEYRHDSSSSYKSDADDDVDFSETTSNPTWLEKIQKTVKNILLAVNLFQTTPVDKSEADRVRKEYDESSSKLNKIQSRISSLEKKLKQDFGPEKEFYSFHGRCFESKQGKYTYKVCAYKEATQEEGYSKTRLGEWDKFENSYQFMSYTNGEKCWNGPDRSLKVKLRCGLKNELMDVDEPSRCEYAAILSTPARCLEDKLKELQQKLEKLMNQDKPQNHDEL”: the protein production entry is given as “failed”. Take “MEISEQESVLEVKKRLGQFLQIPTSSITLFVSCWELIDGLDIEDYPIISHGTRIDLTVTPLFTAPSFIHAAVRKIHVTVKFPSKQFTVEVDRTETVSSLKDKIHIVENTPIKRMQLYYSGIELADDYRNLNEYGITEFSEIVVFLKSINRAKDVAPTSSSLFNGARIPVEIKDTCTISEMREGLQANKTLPRDEYIFVHKQRIMRENCSLRWHGVENGDTLFVFKGSISREGF”: the protein production entry was “failed”. As for “AHHDEVLDIPKGVEVYEIEGPFFFGIANRFEEIMNTLGDHPDVRIIRMRHVPFMDSTGMHNLENLIKMSRKEGVSIVLSGVRKDVHEELATAGIVELLGEENVCADIQAALRQAQAIAQGA”, the protein production entry was “failed”. Consider “MSGLRAGHMPKGRLSGRPSFYFFSQAKLMSRQLDHGRETLMDIFHRHRLSNEGYAASVLERAMQTAEHRPEALVWKGMAALAHNPKLAFLFFINAAQLLPDRADVQALVGRALLAQGLAVLATRYLTQAWQKLPDDASLRMLLWQARSQSEPPATLRSMILAHLPEINAPKELAQVIKLLAAQADAPRRIGVVRYLETHREIQGWAIDLGNLQAPASLKIEADSVNVDAVASIPHPLLSAAGLCTTHGGLRVSVPNPKAQVHIRFADNTHLVGSPVFAMPSFVPPIEQGTQVEQKHVDVLIPVYNGLHETLECINSALEARKLNRTPHRLVVIEDATPVPALAKALKMLAGKGKITLVNNAVNMGFIRTMNRAMALSPGRDVVWLNADTRVQGNWLDRLRNIAHSSADIASVTPFTNNGELMSFPQSQVSHAMPNAREQAALDELAKHANISPVEIETGCGFCLYIKRAALNQVGYLDEVYLARGYGEETDWCLRARSFGWRHMGAPNVFVAHQGGISFGAEKTLRVAHNNAILRRRYPGASARYSAFCLRDPIKAARDALQRARLARFAQQSDEQKASQWPMEAGNTLHIHDGTGADSTLSLVWHRDSHRTWVTLKAPLAPLPLELDYEMPGEFSELVQNLATLPLKGVVLEHQVQCPSKLCDLPSLLNIPYTIVHRDGHLQGLDATYDWQRLANRAESVVLPWQSWHSAFAEAFPQANLVIQPCAELPTPATSQPNILLIGDALDDTDIIQTWVRLGRRITRERLPLTLLVKQDTPWLKTLSATGAVQALPQVTGFSLPEIAKATGCDAVVSLAASPGEKWLAPELASQLDLPLYTRCHSLGTEAGATCVTQLPFSLSQA”, for which the protein production result is listed as “failed”. The value for “MAFRITSQLRPVGNQFGGSRRFATTVADGAKQTYNKFSIMGEFAPVAIIGGFVGLAVLMAGHSLKQQLMHAPAISTRKNRRAAVAEVDDPENCVSSADKFINKSWLRKVGQIQDKSKAILSDPTRPNPFTTPRNAETLNSVGVAPKGI” was “failed”.

“MATIRKLRGRWQAQVRRRGVPPRAKSFDTKTAAERWARDLEAEADRSGWVADTRAAEKTTLGELLSRYANEVTPAKRGAVSEKARINSIVRCPISHRTLAKLTSSDVAGYRDERLKTVAPATVVRELNTISHAIEVATREWGLWVPRNPVKLVRRPPVPRGRTRRLKEGEEQRLLDACDRGRTPLLKPLIILAIETGMRRGELLDLRWEHIDLKRGVAHLPLTKNGDSRDVPLSCRAVQTLQELRSAGVRHDRVFSMTGNSVRLAFEHLRVRAGMSDLHFHDLRHEAISRLFEKGLNIAEVSAISGHRELKMLQRYTHLRAVDLVARLG”: the protein production entry is on record as “failed”.

On to “MPMNISNTKERILAVAEALIQKDGYNAFSFKDIATAINIKTASIHYHFPSKEDLGVAVISWHTDKIAAVLSDISNNSSLSAKEKIQKFFDAILTLTYNSENKMCLGGMFASDFQSLPVSIQNQAKKFFELIIEWLKGVLETNGYDNESSLSLAKQIISLVEGGLLLARLYGDETFLEGVRHFIDQTIK”, for which the protein production entry was “not failed”. As for “AIASERLYYFVIVGRDDRVLYDLLYPASLSELDWRTSSELSSPAERGDFEPHHFIPSIQVLLQFVAYSALDHIEEKYWLTSARSLKHIFRFRDWSASVQLTPNAATRFVLVHGASDDASRNVRAFLHAVYEAYVPHVVCNPFQEEDAPITSKRFHEVAKNLAKRYFSG”, the protein production result is listed as “failed”. With “MEYQLSQAGNKGKVLILKVTGIFFVALAILGVVLPILPTTPFLLVAAACFAKSSPTMQRKLLANKTFGPLIHDWQKYRSIPRKAKRIALLTMILSVCWSAFMLQSVMLTALVVALVIGPFIFLLRLPESK”, the protein production result is given as “failed”. For the sequence “MAEAPPVSGTFKFNTDAAEFIPQERKTSGLNCGTQRRLDSSRIGRRNYSSSPPCHLPRHIPYEDISAVHQHSYASGSKPKSPQGFFQSSNKSLKNHGLQNQPWQKARNEKHQNRNKKAQGLSEQTSDTSSLESVARSESGTNPREHSPSESEKEVVIADPRGAKPKKAAQLTYNYGRGPKAKGRLRSEWGNRMSPKSEDENTRPVAISHTDSSDASCRKPVVDPCVCRRNEQRRYPQKRPPWEVEGARPRPGRNPPKQESQRHINAGPKTNMSPIPKDNLRERPTKSACDTGNLAVVSKSSRRVNQEKTAVRRQDPQVLSPFPRGKQNHMLKNVETHTGSLIEQLTTEKYECMVCCELVQVTAPVWSCQSCFHVFHLNCIKKWARSPASHADGQSGWRCPACQNVSAHVPNTYTCFCGKVKNPEWSRNEIPHSCGEVCRKKQPGQDCPHSCNLLCHPGPCPPCPAFTTKTCECGRTRHTVRCGQPVSVHCSNACENILNCGQHHCAELCHGGQCQPCRIILNQVCYCGSTSRDVLCGTDVGKSDGFGDFSCLKICGKDLKCGSHTCSQVCHPQPCQPCPRLPHLVRYCPCGQTPLSQLLEHGSNARKTCMDPVPSCGKVCGKPLACGSSDFIHTCEKLCHEGDCGPCSRTSVISCRCSFRTKELPCTSLKSEDATFMCDKRCNKKRLCGRHKCNEICCVDKEHKCPLICGRKLRCGLHRCEEPCHRGNCQTCWQASFDELTCHCGASVIYPPVPCGTRPPECTQTCARIHECDHPVYHSCHSEEKCPPCTFLTQKWCMGKHEELTIKKLWTFKETLDF”, the protein production entry is listed as “not failed”.

For “MKRLAKTTLMTAMVAMVSFSIYAQTGRDIAQRVKDRPDGDTRRSELTMKLINKRGAVRERKLISYSIDMGKDKKDKKTIMFFLYPGDVKGTGFLTWDYDQIGKDDDKWLYLPAMKKTRRISGASAKKDYFMGSDFTYDDMGSRNVDEDTHKLLGEETFDGHKCWKLESTSKDQRDVFSKKIAWIRQDCLIPVRVEYYDRMNRLHRLLELSDIAQVDGFWMAQKMNMSNVQTGHRTVLEIKKPEFNRPIDESKFTVTSLEKGSL”, the protein production result was “not failed”. The entry for “MVGPLGKPIKVKYYGNVVFASDAVCGQAENYATLKAMKEVGNYTISIQTFENAENVYPEEFLAKPVADEHYLTTEDGSVGIKGHYLDIVKELIEKDKVDIIFAGGKLGSLAKLAELTRPYGIPTYATVRQIMVDGLEHHHHHH” is “not failed”.
